Test results from article PMC9065997, “Mitochondria-associated myosin 19 processively transports mitochondria on actin tracks in living cells” (The Journal of Biological Chemistry, 2022).

Molecular target: the molecule itself
Test: single-molecule photobleaching steps and spot intensity distribution (TIRF microscopy, HILO illumination); Halo-HM19 constructs expressed in living HeLa cells, stained with R110 Direct HaloTag ligand, spots in filopodia, 37 °C

B1: Halo-HM19^IQ3LZ (tail-truncated human myosin 19, residues 1-834, forced dimer with GCN4 leucine zipper, N-terminal HaloTag) (other)
chain: MLQQVNGHNPGSDGQAREYLREDLQEFLGGEVLLYKLDDLTRVNPVTLETVLRCLQARYMADTFYTNAGCTLVALNPFKPVPQLYSPELMREYHAAPQPQKLKPHVFTVGEQTYRNVKSLIEPVNQSIVVSGESGAGKTWTSRCLMKFYAVVATSPASWESHKIAERIEQRILNSNPVMEAFGNACTLRNNNSSRFGKFIQLQLNRAQQMTGAAVQTYLLEKTRVACQASSERNFHIFYQICKGASEDERLQWHLPEGAAFSWLPNPERSLEEDCFEVTREAMLHLGIDTPTQNNIFKVLAGLLHLGNIQFAASEDEAQPCQPMDDAKYSVRTAASLLGLPEDVLLEMVQIRTIRAGRQQQVFRKPCARAECDTRRDCLAKLIYARLFDWLVSVINSSICADTDSWTTFIGLLDVYGFESFPDNSLEQLCINYANEKLQQHFVAHYLRAQQEEYAVEGLEWSFINYQDNQPCLDLIEGSPISICSLINEECRLNRPSSAAQLQTRIETALAGSPCLGHNKLSREPSFIVVHYAGPVRYHTAGLVEKNKDPIPPELTRLLQQSQDPLLMGLFPTNPKEKTQEEPPGQSRAPVLTVVSKFKASLEQLLQVLHSTTPHYIRCIKPNSQGQAQTFLQEEVLSQLEACGLVETIHISAAGFPIRVSHRNFVERYKLLRRLHPCTSSGPDSPYPAKGLPEWCPHSEEATLEPLIQDILHTLPVLTQAAAITGDSAEAMPAPMHCGRTKVFMTDSMLELLECGRARVLEQCARCIQGGWRRHRHREQERQWRAVMLIQAAIRSWLTRKHIQRLHAAATVIKRAWQKWRIRMACLAAKELDGGTTHSYTSMKQLEDKVEELLSKNYHLENEVARLKKLVGERTSMKQLEDKVEELLSKNYHLENEVARLKKLVGERTSGSEL
modifications: rhodamine 110 (R110 Direct HaloTag ligand) on the HaloTag
notes: myosin 19 (Myo19, HM19), human, residues 1-834 (motor domain and three IQ motifs; 835 to 970 removed), cDNA from GeneCopoeia NM_001163735.1; also called R110-Halo-HM19^IQ3LZ; R110-Halo-HM19^IQ3-LZ; source: HeLa cells, transfected, in living cells; not shown: HaloTag, N-terminal, kept
With B1 the “stoichiometry N” value was 2.
